Reference: paper PMC10101081, “EBR-5, a Novel Variant of Metallo-β-Lactamase EBR from Multidrug-Resistant Empedobacter stercoris” (Microbiology Spectrum, 2023)

What was measured:
EBR-5 = target: T1, EBR-5 (Empedobacter stercoris, UniProt A0ABX1WID8); assay: beta-lactamase inhibition assay; assay type: biochemical
T1 construct: gene bla; 234-residue precursor; N-terminal signal peptide removed (predicted cleavage between 17 and 18, AFG-QI)

[1] = tested on: CO/N=C(\C(=O)N[C@@H]1C(=O)N2C(C(=O)O)=C(COC(C)=O)CS[C@H]12)c1csc(N)n1; assay: steady-state hydrolysis kinetics, Michaelis-Menten fit; assay type: biochemical, Empedobacter stercoris
Source text: (§1) steady-state hydrolysis kinetics, Michaelis-Menten fit on EBR-5

[2] = tested on: CC1(C)S[C@@H]2[C@H](NC(=O)Cc3ccccc3)C(=O)N2[C@H]1C(=O)O; assay: as above; assay type: biochemical, Empedobacter stercoris
Source text: as §1

[3] = tested on: C[C@@H](O)[C@H]1C(=O)N2C(C(=O)O)=C(S[C@@H]3CN[C@H](CNS(N)(=O)=O)C3)[C@H](C)[C@H]12; assay: as above; assay type: biochemical, Empedobacter stercoris
Source text: as §1

[4] = tested on: CC(=O)OCC1=C(C(=O)O)N2C(=O)[C@@H](NC(=O)Cc3cccs3)[C@H]2SC1; assay: as above; assay type: biochemical, Empedobacter stercoris
Source text: as §1

[5] = tested on: O=C(Cc1cccs1)N[C@@H]1C(=O)N2C(C(=O)O)=C(/C=C/c3ccc([N+](=O)[O-])cc3[N+](=O)[O-])CS[C@H]12; assay: as above; assay type: biochemical, Empedobacter stercoris
Source text: as §1

[6] = tested on: CC(C)(O/N=C(\C(=O)N[C@@H]1C(=O)N2C(C(=O)[O-])=C(C[n+]3ccccc3)CS[C@H]12)c1csc(N)n1)C(=O)O; assay: as above; assay type: biochemical, Empedobacter stercoris
Source text: as §1

[7] = tested on: C[C@@H](O)[C@H]1C(=O)N2C(C(=O)O)=C(S[C@@H]3CN[C@H](C(=O)N(C)C)C3)[C@H](C)[C@H]12; assay: as above; assay type: biochemical, Empedobacter stercoris
Source text: as §1

[8] = tested on: C[C@@H](O)[C@H]1C(=O)N2C(C(=O)O)=C(S[C@@H]3CN[C@H](C(=O)Nc4cccc(C(=O)O)c4)C3)[C@H](C)[C@H]12; assay: as above; assay type: biochemical, Empedobacter stercoris
Source text: as §1

[9] = tested on: CC1(C)S[C@@H]2[C@H](NC(=O)[C@H](N)c3ccccc3)C(=O)N2[C@H]1C(=O)O; assay: as above; assay type: biochemical, Empedobacter stercoris
Source text: as §1

[10] = tested on: C[C@@H](O)[C@H]1C(=O)N2C(C(=O)O)=C(SCCN=CN)C[C@H]12; assay: as above; assay type: biochemical, Empedobacter stercoris
Source text: as §1

[11] = tested on: CO/N=C(\C(=O)N[C@@H]1C(=O)N2C(C(=O)[O-])=C(C[N+]3(C)CCCC3)CS[C@H]12)c1csc(N)n1; assay: as above; assay type: biochemical, Empedobacter stercoris
Source text: as §1

[12] = tested on: CO/N=C(\C(=O)N[C@@H]1C(=O)N2C(C(=O)O)=C(COC(N)=O)CS[C@H]12)c1ccco1; assay: as above; assay type: biochemical, Empedobacter stercoris
Source text: as §1

[13] = tested on: CO[C@@]1(NC(=O)Cc2cccs2)C(=O)N2C(C(=O)O)=C(COC(N)=O)CS[C@@H]21; assay: as above; assay type: biochemical, Empedobacter stercoris
Source text: as §1

Molecule: O=C(O)CN(CCN(CC(=O)O)CC(=O)O)CC(=O)O [EDTA]
- IC50 (EBR-5): 130 µM

Molecule: O=C(O)[C@H]1/C(=C/CO)O[C@@H]2CC(=O)N21 [clavulanic acid]
- IC50 (EBR-5): > 2000 µM

Molecule: EBR-5 (Empedobacter stercoris)
- Km [1]: 29 ± 3.9 µM
- kcat [1]: 2.8 ± 0.1 s⁻¹
- kcat/Km [1]: 94000 M⁻¹ s⁻¹
- Km [2]: 116 ± 16 µM
- kcat [2]: 86 ± 2.8 s⁻¹
- kcat/Km [2]: 745000 M⁻¹ s⁻¹
- Km [3]: 1,283 ± 161 μM
- kcat [3]: 145 ± 14 s⁻¹
- kcat/Km [3]: 113000 M⁻¹ s⁻¹
- Km [4]: 64 ± 6.4 µM
- kcat [4]: 27 ± 0.8 s⁻¹
- kcat/Km [4]: 419000 M⁻¹ s⁻¹
- Km [5]: 15 ± 1.7 µM
- kcat [5]: 18 ± 0.5 s⁻¹
- kcat/Km [5]: 1.17e+06 M⁻¹ s⁻¹
- Km [6]: 567 ± 76 µM
- kcat [6]: 0.9 ± 0.09 s⁻¹
- kcat/Km [6]: 1600 M⁻¹ s⁻¹
- Km [7]: 626 ± 61 µM
- kcat [7]: 147 ± 8.3 s⁻¹
- kcat/Km [7]: 236000 M⁻¹ s⁻¹
- Km [8]: 1,507 ± 175 μM
- kcat [8]: 151 ± 13 s⁻¹
- kcat/Km [8]: 100000 M⁻¹ s⁻¹
- Km [9]: 207 ± 21 µM
- kcat [9]: 118 ± 3.3 s⁻¹
- kcat/Km [9]: 572000 M⁻¹ s⁻¹
- Km [10]: 1,218 ± 147 μM
- kcat [10]: 124 ± 10 s⁻¹
- kcat/Km [10]: 102000 M⁻¹ s⁻¹
- Km [11]: 1,058 ± 58 μM
- kcat [11]: 0.1 ± 0.01 s⁻¹
- kcat/Km [11]: 100 M⁻¹ s⁻¹
- Km [12]: 19 ± 2.3 µM
- kcat [12]: 2.1 ± 0.07 s⁻¹
- kcat/Km [12]: 111000 M⁻¹ s⁻¹
- Km [13]: 182 ± 12 µM
- kcat [13]: 1.5 ± 0.04 s⁻¹
- kcat/Km [13]: 8500 M⁻¹ s⁻¹
